Assay results from patent US20100322946A1.

How the values were obtained:
human VEGF165 (human) = human VEGF165 (human) (UniProt P15692); assay: competition ELISA, hVEGF165 in solution varied
[1] = biological target: human VEGF (form not stated) (human) (UniProt P15692); assay: biotin-hVEGF with IgG, free VEGF captured on Avastin

Sequence of human VEGF165 (human) (P15692 other isoform, or with tags, fused parts or gaps): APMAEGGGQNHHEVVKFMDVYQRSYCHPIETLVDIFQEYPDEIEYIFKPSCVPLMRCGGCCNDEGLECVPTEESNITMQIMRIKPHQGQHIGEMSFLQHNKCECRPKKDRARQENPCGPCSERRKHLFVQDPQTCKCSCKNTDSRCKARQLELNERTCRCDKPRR

## G6 hIgG (antibody)
Human VEGF165 (human)
  IC50 (read off the curve): 3 nM
[1]
  IC50 (read off the curve): 3 nM
